pKd: −log10 of the molar value.
Target: the activated zmTrpA variants (Zea mays)
Experiment: activity titration

tryptophan synthase β-subunit TrpB1 from Zea mays, sequence (P43283 whole entry): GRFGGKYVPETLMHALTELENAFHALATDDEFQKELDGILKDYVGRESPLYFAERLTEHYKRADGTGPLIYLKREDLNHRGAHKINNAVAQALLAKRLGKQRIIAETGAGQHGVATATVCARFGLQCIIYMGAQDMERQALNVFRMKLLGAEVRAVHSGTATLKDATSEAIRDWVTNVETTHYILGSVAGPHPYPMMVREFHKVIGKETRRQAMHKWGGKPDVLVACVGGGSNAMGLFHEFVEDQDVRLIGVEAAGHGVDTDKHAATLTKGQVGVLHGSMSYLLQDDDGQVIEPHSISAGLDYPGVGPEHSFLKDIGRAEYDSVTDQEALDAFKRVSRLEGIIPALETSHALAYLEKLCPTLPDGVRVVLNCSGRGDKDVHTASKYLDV

pKd: 6.15 to 6.52
Substance: tryptophan synthase β-subunit TrpB1 from Zea mays (from UniProt P43283 1-389) (enzyme)
